The results in this text go back to article PMC7022249, “Biochemical and Structural Characterization of OXA-405, an OXA-48 Variant with Extended-Spectrum β-Lactamase Activity” (Microorganisms, 2019).

For series [1], the system named is CO/N=C(\C(=O)N[C@@H]1C(=O)N2C(C(=O)O)=C(COC(C)=O)CS[C@H]12)c1csc(N)n1. The series is described as follows: steady-state hydrolysis kinetics (Km) with purified enzyme. It counts as biochemical, Serratia marcescens.
Series [2] concerns C[C@@H](O)[C@H]1C(=O)N2C(C(=O)O)=C(SCCN=CN)C[C@H]12. Described as above. It counts as biochemical, Serratia marcescens.
Series [3] concerns C[C@@H](O)[C@H]1C(=O)N2C(C(=O)O)=C(S[C@@H]3CN[C@H](C(=O)Nc4cccc(C(=O)O)c4)C3)[C@H](C)[C@H]12. Described as above. In kind it is biochemical, Serratia marcescens.
The test system of series [4] is CC(=O)OCC1=C(C(=O)O)N2C(=O)[C@@H](NC(=O)Cc3cccs3)[C@H]2SC1. The series is described as above. It counts as biochemical, Serratia marcescens.
For series [5], the system named is CC1(C)S[C@@H]2[C@H](NC(=O)[C@H](N)c3ccccc3)C(=O)N2[C@H]1C(=O)O. The description is as above. It counts as biochemical, Serratia marcescens.
Series [6] relates to CC1(C)S[C@@H]2[C@H](NC(=O)Cc3ccccc3)C(=O)N2[C@H]1C(=O)O. Described as above. It counts as biochemical, Serratia marcescens.
In series [7] the test system is Cc1onc(-c2ccccc2)c1C(=O)N[C@@H]1C(=O)N2[C@@H]1SC(C)(C)[C@@H]2C(=O)O. Described as above. It counts as biochemical, Serratia marcescens.
In series [8] the target is T1, OXA-405 β-lactamase (Serratia marcescens, UniProt A0A0F6P2I5).
T1 construct: gene blaOXA-405
The series is described as follows: IC50 with purified enzyme, […] benzylpenicillin as reporter substrate, […] min preincubation. In kind it is biochemical.

Series [9] has as its target T1, OXA-405 β-lactamase. The series is described as follows: steady-state hydrolysis kinetics (Km) with purified enzyme. In kind it is biochemical.

T1 sequence (A0A0F6P2I5 23-261 limits assumed): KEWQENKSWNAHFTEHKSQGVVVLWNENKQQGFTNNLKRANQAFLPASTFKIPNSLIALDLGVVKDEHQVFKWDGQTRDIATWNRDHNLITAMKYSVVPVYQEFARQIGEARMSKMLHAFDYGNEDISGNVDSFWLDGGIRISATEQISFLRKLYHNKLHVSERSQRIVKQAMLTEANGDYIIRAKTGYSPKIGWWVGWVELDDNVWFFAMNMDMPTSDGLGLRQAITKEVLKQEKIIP

As usually defined, the Km is the substrate concentration at which the rate is half of its maximum. One may read the kcat as the maximal rate divided by the concentration of active sites. In general, kcat/Km refers to the turnover number divided by the Michaelis constant. On to “OXA-405 β-lactamase (Serratia marcescens)”, for which the Km in series [1] amounted to 369 µM; in [2] it was 532 µM; in [3], 88 µM; in [4] it was 18 µM; in [5], 212 µM; in series [6], 18 µM. The Km in series [7] came out at 69 µM. Moreover, the kcat in [1] is 9.7 s⁻¹; in series [2] it was 0.1 s⁻¹; in series [3], 0.04 s⁻¹; in series [4], 8 s⁻¹; in [5] it was 29 s⁻¹; in series [6], 12 s⁻¹. Moreover, in [7], the kcat was determined as 19 s⁻¹. The kcat/Km amounted to 26000 M⁻¹ s⁻¹ in series [1]; 200 M⁻¹ s⁻¹ in [2]; 400 M⁻¹ s⁻¹ in [3]; 444000 M⁻¹ s⁻¹ in series [4]; 137000 M⁻¹ s⁻¹ in [5]; 667000 M⁻¹ s⁻¹ in series [6]. In addition, in series [7], the kcat/Km came out at 275000 M⁻¹ s⁻¹.

Broadly, the IC50 is the point on the concentration scale where inhibition reaches its midpoint. At OXA-405 β-lactamase [8], `O=C(O)[C@H]1/C(=C/CO)O[C@@H]2CC(=O)N21` [Clavulanic acid] displayed a 50% inhibitory concentration (IC50) of 6 µM. In other words, the single-digit micromolar range.

For the compound `CC(C)(O/N=C(\C(=O)N[C@@H]1C(=O)N2C(C(=O)[O-])=C(C[n+]3ccccc3)CS[C@H]12)c1csc(N)n1)C(=O)O` [Ceftazidime], the Km on OXA-405 β-lactamase [9] is greater than 1000 µM.

On OXA-405 β-lactamase [8], `C[C@]1(Cn2ccnn2)[C@H](C(=O)O)N2C(=O)C[C@H]2S1(=O)=O` [Tazobactam] registered an IC50 of 1.8 µM.
